Laboratory results reported in US20260103748A1 (NAVINCI DIAGNOSTICS, published 2026).
Each block holds one binder with its values, some of them ahead of it.

What was measured:
Beta-catenin = target: T1, Beta-catenin (UniProt P35222 2-781); assay: in situ proximity ligation assay on fixed MCF-7 cells, with blocking oligonucleotide 13+13, RCA and Cy5 detection
T1 construct: Endogenous protein in fixed MCF-7 cells, detected through a primary antibody and oligonucleotide-conjugated secondary antibodies (in situ PLA); also called Beta-caternin
T1 sequence (looked up): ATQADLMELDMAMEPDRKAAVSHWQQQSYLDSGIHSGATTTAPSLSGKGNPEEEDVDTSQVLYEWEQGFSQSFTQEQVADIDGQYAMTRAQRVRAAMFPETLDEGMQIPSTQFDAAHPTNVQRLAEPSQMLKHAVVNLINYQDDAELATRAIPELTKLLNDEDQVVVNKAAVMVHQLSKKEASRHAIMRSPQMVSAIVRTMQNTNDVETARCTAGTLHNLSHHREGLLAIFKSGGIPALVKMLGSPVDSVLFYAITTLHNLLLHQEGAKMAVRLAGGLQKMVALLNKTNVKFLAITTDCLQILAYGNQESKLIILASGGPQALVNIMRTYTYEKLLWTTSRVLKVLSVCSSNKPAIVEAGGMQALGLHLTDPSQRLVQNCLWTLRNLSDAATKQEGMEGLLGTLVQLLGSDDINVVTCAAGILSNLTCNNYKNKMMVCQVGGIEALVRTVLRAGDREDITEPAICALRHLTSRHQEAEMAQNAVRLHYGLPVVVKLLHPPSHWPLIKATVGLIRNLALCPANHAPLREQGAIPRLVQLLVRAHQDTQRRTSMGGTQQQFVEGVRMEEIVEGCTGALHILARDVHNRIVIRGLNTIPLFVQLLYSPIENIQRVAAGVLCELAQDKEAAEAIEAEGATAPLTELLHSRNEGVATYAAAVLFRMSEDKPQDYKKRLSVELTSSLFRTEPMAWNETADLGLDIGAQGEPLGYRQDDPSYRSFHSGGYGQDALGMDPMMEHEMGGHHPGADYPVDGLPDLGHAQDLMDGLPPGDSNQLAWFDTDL
Procedure: The validation of the design was performed on MCF-7 cells, using a high concentration of proximity probes (conjugated secondary antibodies), probe A: anti-Mouse, with padlocks hybridized; probe B: anti-Rabbit with ligation templates (24 nt hybridization site, 12 nt on each end), 50 nM each). After incubation the fixed MCF-7 cells with (one or both primary antibody for Beta-caternin and E-cadherin) or without the primary antibodies (-primary) and washing, the secondary antibodies with (1 uM blocking oligos, 13 nt hybridization site on both ends) or without blocking oligos were applied to the MCF-7 cells.
When the probe A and B bind in close proximity, the blocking oligonucleotide can be competed away. The signal here results from the rolling cycle amplification products, representing the close proximity of Beta-catenin and E-cadherin detected by Cy5 labelled detection oligonucleotides, the nuclei were stained with DAPI.

AKT2 = target: T2, AKT2 (human, UniProt P31751 1-481); assay: multiplex in situ PLA on fixed human breast cancer cells with or without EGF
T2 construct: Endogenous protein in fixed human breast cancer cells (isPLA)
T2 sequence (P31751 whole entry): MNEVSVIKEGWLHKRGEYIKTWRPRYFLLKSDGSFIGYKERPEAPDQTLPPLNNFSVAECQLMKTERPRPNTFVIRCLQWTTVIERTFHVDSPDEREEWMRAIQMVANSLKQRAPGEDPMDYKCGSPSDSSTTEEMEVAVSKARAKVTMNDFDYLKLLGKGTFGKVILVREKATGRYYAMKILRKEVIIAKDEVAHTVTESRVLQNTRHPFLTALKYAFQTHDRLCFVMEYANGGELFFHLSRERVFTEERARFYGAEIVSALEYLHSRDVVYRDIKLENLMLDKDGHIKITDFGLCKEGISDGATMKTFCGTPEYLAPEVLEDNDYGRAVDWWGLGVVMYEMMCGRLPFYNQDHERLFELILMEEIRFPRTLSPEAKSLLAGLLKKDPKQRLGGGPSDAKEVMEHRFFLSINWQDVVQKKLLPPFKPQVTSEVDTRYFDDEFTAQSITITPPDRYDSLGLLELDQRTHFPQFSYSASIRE
Procedure: (§1) Detection was performed in three imaging rounds with stripping of the specific fluorescently-labelled detection probe between rounds. DAPI staining is shown in each image. Three isPLA reactions are detected per round using either a FITC, Cy3 or Cy5 filter. The isPLA assays target protein phosphorylation-protein or protein-protein interactions.
(§2) In situ PLA probes using the set-up illustrated in FIG. 3 were generated to target protein-protein interactions or protein-protein phosphorylation targets. Each isPLA probe set contains a unique oligonucleotide sequence that is complimentary to a fluorescent-conjugated detection oligonucleotide. The detection oligos are conjugated to either FITC, Cy3 or Cy5.
(§3) Following probe incubation, the padlocks were circularised by ligation, subjected to RCA to generate RCA products and detected with fluorescently labelled detection probes. Detection was performed in three rounds (see FIG. 11). […] Next, the detection oligos were stripped and new detection oligos were added targeting phosphorylated Grb2, phosphorylated Pi3K and phosphorylated STAT3. The same procedure was repeated again to detect phosphorylated Pi3K-PanAKT interaction, STAT5a-JAK2 interaction and JAK1-JAK3 interaction.

JAK2 = target: T3, JAK2 (human, UniProt O60674 1-1132); assay: as above
T3 construct: Endogenous protein in fixed human breast cancer cells (isPLA)
T3 sequence (O60674 whole entry): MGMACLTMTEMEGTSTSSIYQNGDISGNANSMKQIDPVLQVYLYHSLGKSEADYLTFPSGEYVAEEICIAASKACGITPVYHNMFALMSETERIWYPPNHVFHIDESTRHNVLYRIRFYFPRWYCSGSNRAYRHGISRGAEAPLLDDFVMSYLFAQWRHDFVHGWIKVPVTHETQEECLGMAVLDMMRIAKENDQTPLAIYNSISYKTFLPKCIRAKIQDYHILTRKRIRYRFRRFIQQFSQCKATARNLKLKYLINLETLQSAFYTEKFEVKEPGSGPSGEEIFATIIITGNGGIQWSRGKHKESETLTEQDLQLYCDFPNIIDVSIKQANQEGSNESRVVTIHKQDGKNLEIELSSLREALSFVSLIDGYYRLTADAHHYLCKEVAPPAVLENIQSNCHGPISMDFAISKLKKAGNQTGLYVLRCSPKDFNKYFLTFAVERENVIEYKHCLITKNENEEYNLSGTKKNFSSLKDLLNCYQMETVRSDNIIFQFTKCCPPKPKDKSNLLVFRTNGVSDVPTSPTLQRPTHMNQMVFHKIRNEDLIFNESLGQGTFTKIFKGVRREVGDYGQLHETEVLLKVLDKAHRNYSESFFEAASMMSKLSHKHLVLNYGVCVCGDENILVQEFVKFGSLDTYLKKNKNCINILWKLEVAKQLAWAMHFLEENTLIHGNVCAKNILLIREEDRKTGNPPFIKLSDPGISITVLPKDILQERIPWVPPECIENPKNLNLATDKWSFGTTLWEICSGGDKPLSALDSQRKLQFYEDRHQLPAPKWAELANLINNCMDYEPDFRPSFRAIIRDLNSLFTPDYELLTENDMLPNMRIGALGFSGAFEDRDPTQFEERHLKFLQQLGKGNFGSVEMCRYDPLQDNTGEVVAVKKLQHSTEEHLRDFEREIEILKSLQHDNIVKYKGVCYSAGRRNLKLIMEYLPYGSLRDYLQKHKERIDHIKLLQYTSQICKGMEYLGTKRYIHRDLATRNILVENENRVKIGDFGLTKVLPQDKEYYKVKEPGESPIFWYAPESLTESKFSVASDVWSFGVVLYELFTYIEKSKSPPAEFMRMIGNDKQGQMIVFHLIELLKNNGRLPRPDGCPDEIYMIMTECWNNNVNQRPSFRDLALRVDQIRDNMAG
Procedure: as §1, §2, §3

binding result (Beta-catenin): binds
B1: E-cadherin (other, UniProt P12830 155-882, looked up)
chain: DWVIPPISCPENEKGPFPKNLVQIKSNKDKEGKVFYSITGQGADTPPVGVFIIERETGWLKVTEPLDRERIATYTLFSHAVSSNGNAVEDPMEILITVTDQNDNKPEFTQEVFKGSVMEGALPGTSVMEVTATDADDDVNTYNAAIAYTILSQDPELPDKNMFTINRNTGVISVVTTGLDRESFPTYTLVVQAADLQGEGLSTTATAVITVTDTNDNPPIFNPTTYKGQVPENEANVVITTLKVTDADAPNTPAWEAVYTILNDDGGQFVVTTNPVNNDGILKTAKGLDFEAKQQYILHVAVTNVVPFEVSLTTSTATVTVDVLDVNEAPIFVPPEKRVEVSEDFGVGQEITSYTAQEPDTFMEQKITYRIWRDTANWLEINPDTGAISTRAELDREDFEHVKNSTYTALIIATDNGSPVATGTGTLLLILSDVNDNAPIPEPRTIFFCERNPKPQVINIIDADLPPNTSPFTAELTHGASANWTIQYNDPTQESIILKPKMALEVGDYKINLKLMDNQNKDQVTTLEVSVCDCEGAAGVCRKAQPVEAGLQIPAILGILGGILALLILILLLLLFLRRRAVVKEPLLPPEDDTRDNVYYYDEEGGGEEDQDFDLSQLHRGLDARPEVTRNDVAPTLMSVPRYLPRPANPDEIGNFIDENLKAADTDPTAPPYDSLLVFDYEGSGSEAASLSSLNSSESDKDQDYDYLNEWGNRFKKLADMYGGGEDD
notes: Endogenous protein in fixed MCF-7 cells, detected through a primary antibody and oligonucleotide-conjugated secondary antibodies (in situ PLA)

binding result (AKT2): binds
B2: AKT3 (enzyme, human, UniProt Q9Y243 2-479, looked up)
chain: SDVTIVKEGWVQKRGEYIKNWRPRYFLLKTDGSFIGYKEKPQDVDLPYPLNNFSVAKCQLMKTERPKPNTFIIRCLQWTTVIERTFHVDTPEEREEWTEAIQAVADRLQRQEEERMNCSPTSQIDNIGEEEMDASTTHHKRKTMNDFDYLKLLGKGTFGKVILVREKASGKYYAMKILKKEVIIAKDEVAHTLTESRVLKNTRHPFLTSLKYSFQTKDRLCFVMEYVNGGELFFHLSRERVFSEDRTRFYGAEIVSALDYLHSGKIVYRDLKLENLMLDKDGHIKITDFGLCKEGITDAATMKTFCGTPEYLAPEVLEDNDYGRAVDWWGLGVVMYEMMCGRLPFYNQDHEKLFELILMEDIKFPRTLSSDAKSLLSGLLIKDPNKRLGGGPDDAKEIMRHSFFSGVNWQDVYDKKLVPPFKPQVTSETDTRYFDEEFTAQTITITPPEKYDEDGMDCMDNERRPHFPQFSYSASGRE
notes: Endogenous protein in fixed human breast cancer cells (isPLA)

binding result (JAK2): binds
B3: STAT5a (other, human, UniProt P42229 1-794, looked up)
chain: MAGWIQAQQLQGDALRQMQVLYGQHFPIEVRHYLAQWIESQPWDAIDLDNPQDRAQATQLLEGLVQELQKKAEHQVGEDGFLLKIKLGHYATQLQKTYDRCPLELVRCIRHILYNEQRLVREANNCSSPAGILVDAMSQKHLQINQTFEELRLVTQDTENELKKLQQTQEYFIIQYQESLRIQAQFAQLAQLSPQERLSRETALQQKQVSLEAWLQREAQTLQQYRVELAEKHQKTLQLLRKQQTIILDDELIQWKRRQQLAGNGGPPEGSLDVLQSWCEKLAEIIWQNRQQIRRAEHLCQQLPIPGPVEEMLAEVNATITDIISALVTSTFIIEKQPPQVLKTQTKFAATVRLLVGGKLNVHMNPPQVKATIISEQQAKSLLKNENTRNECSGEILNNCCVMEYHQATGTLSAHFRNMSLKRIKRADRRGAESVTEEKFTVLFESQFSVGSNELVFQVKTLSLPVVVIVHGSQDHNATATVLWDNAFAEPGRVPFAVPDKVLWPQLCEALNMKFKAEVQSNRGLTKENLVFLAQKLFNNSSSHLEDYSGLSVSWSQFNRENLPGWNYTFWQWFDGVMEVLKKHHKPHWNDGAILGFVNKQQAHDLLINKPDGTFLLRFSDSEIGGITIAWKFDSPERNLWNLKPFTTRDFSIRSLADRLGDLSYLIYVFPDRPKDEVFSKYYTPVLAKAVDGYVKPQIKQVVPEFVNASADAGGSSATYMDQAPSPAVCPQAPYNMYPQNPDHVLDQDGEFDLDETMDVARHVEELLRRPMDSLDSRLSPPAGLFTSARGSLS
notes: as for B2
